Measurements from article PMC12126155 (Molecular cell, 2025).

Target: histone H4 (X. laevis), as in the H3K4Cme3 nucleosome (X. laevis, UniProt P62799 1-103)
Test: cryo-EM structure

B1: H. sapiens Chromodomain Helicase DNA Binding Protein 1 (CHD1 residues 1-1327 lacking the CHCT domain) (enzyme)
chain: MNGHSDEESVRNSSGESSQSDDDSGSASGSGSGSSSGSSSDGSSSQSGSSDSDSGSESGSQSESESDTSRENKVQAKPPKVDGAEFWKSSPSILAVQRSAILKKQQQQQQQQQHQASSNSGSEEDSSSSEDSDDSSSEVKRKKHKDEDWQMSGSGSPSQSGSDSESEEEREKSSCDETESDYEPKNKVKSRKPQNRSKSKNGKKILGQKKRQIDSSEEDDDEEDYDNDKRSSRRQATVNVSYKEDEEMKTDSDDLLEVCGEDVPQPEEEEFETIERFMDCRIGRKGATGATTTIYAVEADGDPNAGFEKNKEPGEIQYLIKWKGWSHIHNTWETEETLKQQNVRGMKKLDNYKKKDQETKRWLKNASPEDVEYYNCQQELTDDLHKQYQIVERIIAHSNQKSAAGYPDYYCKWQGLPYSECSWEDGALISKKFQACIDEYFSRNQSKTTPFKDCKVLKQRPRFVALKKQPSYIGGHEGLELRDYQLNGLNWLAHSWCKGNSCILADEMGLGKTIQTISFLNYLFHEHQLYGPFLLVVPLSTLTSWQREIQTWASQMNAVVYLGDINSRNMIRTHEWTHHQTKRLKFNILLTTYEILLKDKAFLGGLNWAFIGVDEAHRLKNDDSLLYKTLIDFKSNHRLLITGTPLQNSLKELWSLLHFIMPEKFSSWEDFEEEHGKGREYGYASLHKELEPFLLRRVKKDVEKSLPAKVEQILRMEMSALQKQYYKWILTRNYKALSKGSKGSTSGFLNIMMELKKCCNHCYLIKPPDNNEFYNKQEALQHLIRSSGKLILLDKLLIRLRERGNRVLIFSQMVRMLDILAEYLKYRQFPFQRLDGSIKGELRKQALDHFNAEGSEDFCFLLSTRAGGLGINLASADTVVIFDSDWNPQNDLQAQARAHRIGQKKQVNIYRLVTKGSVEEDILERAKKKMVLDHLVIQRMDTTGKTVLHTGSAPSSSTPFNKEELSAILKFGAEELFKEPEGEEQEPQEMDIDEILKRAETHENEPGPLTVGDELLSQFKVANFSNMDEDDIELEPERNSKNWEEIIPEDQRRRLEEEERQKELEEIYMLPRMRNCAKQISFNGSEGRRSRSRRYSGSDSDSISEGKRPKKRGRPRTIPRENIKGFSDAEIRRFIKSYKKFGGPLERLDAIARDAELVDKSETDLRRLGELVHNGCIKALKDSSSGTERTGGRLGKVKGPTFRISGVQVNAKLVISHEEELIPLHKSIPSDPEERKQYTIPCHTKAAHFDIDWGKEDDSNLLIGIYEYGYGSWEMIKMDPDLSLTHKILPDDPDKKPQAKQLQTRADYLIKLLSRDLAKKEALSGAG
B1: binds.
